Consider one molecule from publication PMC4620744 (Molecular cell, 2015).

The experiment deals with full-length H2A-H2B (S. cerevisiae, UniProt P04911 1-132; P02293 1-131). Nature of the experiment: ITC.

B1: Pob3-C (domain or fragment)
chain: EVQERLQTALGSDSDEEDINMGSAGEDDESVDEDFQVSSDNDADEVAEEFDSDAALSDAEGGSDEERPSKKPKVE
With B1, binding was characterised by a dissociation constant (Kd) of 300 nM and the “stoichiometry N” value was 1.
